Reference: the DeepSol protein solubility set

Test: soluble on expression in E. coli; label from the status in PepcDB or PDB records

Sequence | soluble on expression in E. coli
MGSDKIHHHHHHMSLFNIFDVSGSGMAAQSIRLNTTASNIANADSVSSSVDKTYRARHPIFEAELNKAHDQQNGTKGVQVRAIVESDKPLLKEYSPSHPMADGDGFIYKPNVNVMEEMADMISASRSYQMNVQVADATKTMLQQTLRMGK | not soluble
SKAQEKGEAISLAFKGVKAEFLKRPEADVHFVCNDGHVIDEMLDHTIATGERVNRDVKIIALCPSLHGQEPMAEFALTLSIKKAAQHTKKAA | not soluble
MGSDKIHHHHHHMNERRLLLTGGWILSMDPAVGDLRQGDILIEGDRIAAVAPRIEAPEAQRIDAAGMIVLPGFVDTHRHTWQSCVRHRYADIDPQIYFAEMLGATGAAFRPDDVYIGTLLGAVSALDSGITTMLDWSHVQNSPEHADAAVLGLRDAGIRGIFAHGWPLVEGASWMFDSQRGHPEDIRRLRERYFSSDDQLLTLAMAARGPEMACREVWLRDLRLARELGIRSSIHMGAYARNGTARGIAQMHEAGVLGDDLTFVHCCCSGEDEIAMMADAGVSASLGVHCELNAQGIGDLPLDRMLAVGIRPSLSGDTETKCSGDMFTQMRHAFAYYRSWMGGNHSRVANAPATLSMRDVLEFATVAGARANGLDHKVGSLTPGKQADIVMIRGDDLNLAPVSDAVGAVVLAAHPGNVDTVFVAGRTVKRHGRMTGVDVDMLRHRAAASQHYVLGLR | not soluble
KPGAMYRNSSKPAYTRREYISGIPGKKIAQFDMGNNGAGPTYPAQVELVVEKPVQIRHNALEAARVAANRYVQNSGAAANYKFRIRKFPFHVIRENKAAAAAAAAAAADGMRAPFGKPVGTAARVHGANHIFIAWVNPDPNVEEAWRRAKMKVTPTINIDSSPAGNA | soluble
MNSIRSSPAIGENRTVYIGSYDGKLYAFNPDGTLKWSYTTGNQITGSATIGADGTICIGSYDRRLYTINPDGTLKWSYTTGNQIFSSAAIGEDGTIYVGSRDNKLYALNPDGTLKWSYTTGNQIFSSAAIGEDLEHHHHHH | not soluble
DKCKKVYENYPVSKCQLANQCNYDCKLDKHARSGECFYDEKRNLQCICDYCEY | soluble
MLCASAEVEVFYDTDNNRKSDPAVFWQNPLNRSKFPLLSQIANRYLTTPASSAESERVFSGAGRVSTKLRRKMSTKSLSKSVFLQQNQKVLGFKIGLD | not soluble
MCGKFTLFSEFDDIIEQFNIDQFLPEGEYHPSYNVAPSQNILTIINDGSNNRLGKLRWGLIPPCAKDEKIGYKMINARAETLAEKPSFRKPLGSKRCIIPADSFYEWKRLDPKTKIPMRIKLKSSNLFAFAGLYEKWNTLEGNLLYTCTIITIKPSELMEDIHDRMPVILTDENKKEWLNPKNTDPDYLQSLLLPYDADDMEAYQVSSLVNSPELIESHLEHHHHHH | not soluble
MEFQKKKQKVIQVKEIKFRPGTDEGDYQVKLRSLIRFLEEGDKAKITLRFRGREMAHQQIGMEVLNRVKDDLQELAVVESFPTKIEGRQMIMVLAPKKKQ | soluble
NDRHIRHDITRPLPFADNSVDAFQAEDVLEHIAYDRIVPVLNEIHRVLKPGAVFRLSVPDYRCDILDARTEKDATGAPVFDPGGGGTRENPGHAWFPRYETVKTLVEKSNFGTAGEISFLHYYDEHNLPAMREIDYAKGFIQRPPDHDPRVQTPYRPMSLVVDLTKRDVRIFSSFNNSASHA | not soluble
MSLEQVEILRKFIQRVQAMKSPDHNGEDNFARDFMRLRRLSTKYRTEKIYPTATGEKEENVKKNRYKDILPFDHSRVKLTLKTPSQDSDYINANFIKGVYGPKAYVATQGPLANTVIDFWRMIWEYNVVIIVMACREFEMGRKKCERYWPLYGEDPITFAPFKISCEDEQARTDYFIRTLLLEFQNESRRLYQFHYVNWPDHDVPSSFDSILDMISLMRKYQEHEDVPICIHCSAGCGRTGAICAIDYTWNLLKAGKIPEEFNVFNLIQEMRTQRHSAVQTKEQYELVHRAIAQLFEKQLQLYEIHGAQKIADGVNEINTENEGHHHHHH | soluble
MIRYKIYQNQQKKGLNAGKWFARAVSDETFDLSKLAEHMSKHNSPYSSGVIKGVLTDMVDCIKELLLDGKSVKIDDLAIFGVGIRSKAAETLEEFSLEKNITGMRLKARATGNLSTTNLKLDSQLKQQAEYQKPTTPGGGGSGSGNTPDPKPNPDEGDEEAPDPTV | not soluble
MYIPKHFAVNDPDVAYQVIEENSFATLVSMHQRELFATHLPLLLDREKTCLYGHFARSNPQWNDIQHQTVLAIFHGPHCYISPSWYETNQAVPTWNYVAVHVYGNVELINDQGEVMQSLHDMVEKYEAPGSRYQLSEVDAGMLSGMNKGIQAFKIIIKRIEGKAKLSQNHPAHRQERIIKQLEQMPFENEKRIASLMKKQRQ | soluble
